According to paper PMC10870172:

Assays:
Assay in all cases: other fluorescence titration; single-molecule FRET on freely diffusing ClpB hexamers (1:100 labeled:unlabeled, ~50 pM labeled, ~5 nM total) with increasing concentrations of unlabeled κ-casein; ratio of H2MM-derived state 1 population with and without κ-casein fitted to a simple binding isotherm; 25 mM HEPES, 25 mM KCl, 10 mM MgCl2, 2 mM ATP, 0.01% Tween 20, pH 8, 22°C
[1] = target: ClpB PL2 construct A281C-S359C (wt), hexamer with one labeled protomer (Thermus thermophilus) (UniProt Q9RA63)
[2] = target: ClpB PL2 BB construct A281C-S359C with E271A/E668A, hexamer with one labeled protomer (Thermus thermophilus) (UniProt Q9RA63)
[3] = target: ClpB PL1 construct S236C-S359C (wt), hexamer with one labeled protomer (Thermus thermophilus) (UniProt Q9RA63)
[4] = target: ClpB PL3 construct S359C-Y646C (wt), hexamer with one labeled protomer (Thermus thermophilus) (UniProt Q9RA63)

A Kd [1] of 11300 nM, a Kd [2] of 300 nM and a Kd [3] of 2900 nM were found for “κ-casein (from UniProt P02668 22-190) (natural protein)” in this work. It also gave a Kd [4] of 900 nM.
